Substrate: Nc1ncnc2c1ncn2[C@@H]1O[C@H](COP(=O)(O)OP(=O)(O)OP(=O)(O)O)[C@@H](O)[C@H]1O
Assay: purified protein
Conditions: M13 ssDNA effector; ATP 0-4 mM

B1: DDX41 (Homo sapiens) (protein)
chain: MEESEPERKRARTDEVPAGGSRSEAEDEDDEDYVPYVPLRQRRQLLLQKLLQRRRKGAAEEEQQDSGSEPRGDEDDIPLGPQSNVSLLDQHQHLKEKAEARKESAKEKQLKEEEKILESVAEGRALMSVKEMAKGITYDDPIKTSWTPPRYVLSMSEERHERVRKKYHILVEGDGIPPPIKSFKEMKFPAAILRGLKKKGIHHPTPIQIQGIPTILSGRDMIGIAFTGSGKTLVFTLPVIMFCLEQEKRLPFSKREGPYGLIICPSRELARQTHGILEYYCRLLQEDSSPLLRCALCIGGMSVKEQMETIRHGVHMMVATPGRLMDLLQKKMVSLDICRYLALDEADRMIDMGFEGDIRTIFSYFKGQRQTLLFSATMPKKIQNFAKSALVKPVTINVGRAGAASLDVIQEVEYVKEEAKMVYLLECLQKTPPPVLIFAEKKADVDAIHEYLLLKGVEAVAIHGGKDQEERTKAIEAFREGKKDVLVATDVASKGLDFPAIQHVINYDMPEEIENYVHRIGRTGRSGNTGIATTFINKACDESVLMDLKALLLEAKQKVPPVLQVLHCGDESMLDIGGERGCAFCGGLGHRITDCPKLEAMQTKQVSNIGRKDYLAHSSMDF
Km: 200 µM | kcat: 953.6 ± 45.5 s⁻¹

Source: publication PMC9205463
